The text below walks through data of patent US20190202925A1 (OPI VI IP HOLDCO, published 2019).

Test [1] addresses T1, soluble cynomolgus TNFR2 (cynomolgus, UniProt A0A2K5VET2 132-366).
T1 sequence: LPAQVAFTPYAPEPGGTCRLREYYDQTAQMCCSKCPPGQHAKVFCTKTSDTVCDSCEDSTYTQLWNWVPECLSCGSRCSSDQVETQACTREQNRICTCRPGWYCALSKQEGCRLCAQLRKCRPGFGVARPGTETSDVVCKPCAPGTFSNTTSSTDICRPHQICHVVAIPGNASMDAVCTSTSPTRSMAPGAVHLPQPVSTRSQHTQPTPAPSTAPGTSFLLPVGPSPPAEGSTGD
The experiment in a line: competition ELISA: plate-bound soluble cynomolgus TNFR2, competitor biotinylated TNFα, streptavidin-HRP, A450. As for the experimental part:
(§1) Soluble human TNFR2 (Sino Biological, 10417-H08H) or cynomolgus TNFR2 (Sino Biological, 90102-C08H) was coated on Nunc-Immuno™ plates at 0.1 μg/ml, 0.5 ug/ml, 1 μg/ml, and 5 μg/ml. […] Plates were developed using TMB and stopped with 3 M HCl.
For orientation: In an ELISA, binding on a coated surface is turned into a signal by an enzyme label.

Test [2] deals with T1, soluble cynomolgus TNFR2. Put plainly: competition ELISA, plate-bound soluble cynomolgus TNFR2, biotinylated TNFα as competitor. As for the experimental part:
as §1
(§2) IC₅₀ values are reported in nM.

Test [3] addresses T2, monomeric human TNFR2 extracellular domain (human, UniProt P20333 23-257).
T2 construct: extracellular domain; Analyte in the Octet experiments; also called human TNFR2 ECD
T2 sequence (looked up): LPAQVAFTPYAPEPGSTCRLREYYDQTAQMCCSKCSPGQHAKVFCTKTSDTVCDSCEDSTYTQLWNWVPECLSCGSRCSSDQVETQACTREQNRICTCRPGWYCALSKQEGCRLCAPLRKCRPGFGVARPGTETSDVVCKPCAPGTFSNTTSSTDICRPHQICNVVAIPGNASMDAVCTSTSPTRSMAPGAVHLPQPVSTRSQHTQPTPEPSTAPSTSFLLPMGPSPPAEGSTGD
The experiment in a line: BLI (Octet Red 96), antibody captured on Fc biosensor, monomeric TNFR2 ECD in solution, 1:1 model. Background: BLI is a label-free optical method that tracks binding on a fibre tip over time.

For test [4], the target named is T3, monomeric cynomolgus TNFR2 extracellular domain (cynomolgus monkey, UniProt A0A2K5VET2 132-366).
T3 construct: extracellular domain; Analyte in the Octet experiments; also called cynomolgus TNFR2 ECD; Cyno TNFR2
T3 sequence: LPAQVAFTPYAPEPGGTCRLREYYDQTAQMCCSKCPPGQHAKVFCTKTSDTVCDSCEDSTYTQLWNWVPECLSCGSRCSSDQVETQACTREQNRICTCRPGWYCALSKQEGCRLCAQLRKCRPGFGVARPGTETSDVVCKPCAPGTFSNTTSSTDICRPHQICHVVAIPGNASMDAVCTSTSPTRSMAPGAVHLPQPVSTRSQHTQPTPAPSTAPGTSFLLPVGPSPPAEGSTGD
The description is as above.

Test [5] concerns the target T4, soluble human TNFR2 (human, UniProt P20333 23-257).
T4 construct: also called soluble TNFR2
T4 sequence (looked up): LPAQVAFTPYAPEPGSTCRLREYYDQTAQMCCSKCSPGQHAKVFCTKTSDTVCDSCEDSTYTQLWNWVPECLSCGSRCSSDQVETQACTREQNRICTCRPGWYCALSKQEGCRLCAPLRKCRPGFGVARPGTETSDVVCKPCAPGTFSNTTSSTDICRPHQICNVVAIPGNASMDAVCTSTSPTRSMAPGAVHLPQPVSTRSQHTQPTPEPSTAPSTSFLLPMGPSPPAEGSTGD
Put plainly: competition ELISA: plate-bound soluble human TNFR2, competitor biotinylated TNFα; IC50 relative to unlabelled TNFα = 1.00. As for the experimental part:
as §1, §2

In test [6] the target is T5, human TNFR2 on cells (human, UniProt P20333 23-461).
T5 construct: whole, on cells; also called TNFR2 on Jurkat clone H6; human TNFR2 on CD4+ and CD8+ T cells
T5 sequence (looked up): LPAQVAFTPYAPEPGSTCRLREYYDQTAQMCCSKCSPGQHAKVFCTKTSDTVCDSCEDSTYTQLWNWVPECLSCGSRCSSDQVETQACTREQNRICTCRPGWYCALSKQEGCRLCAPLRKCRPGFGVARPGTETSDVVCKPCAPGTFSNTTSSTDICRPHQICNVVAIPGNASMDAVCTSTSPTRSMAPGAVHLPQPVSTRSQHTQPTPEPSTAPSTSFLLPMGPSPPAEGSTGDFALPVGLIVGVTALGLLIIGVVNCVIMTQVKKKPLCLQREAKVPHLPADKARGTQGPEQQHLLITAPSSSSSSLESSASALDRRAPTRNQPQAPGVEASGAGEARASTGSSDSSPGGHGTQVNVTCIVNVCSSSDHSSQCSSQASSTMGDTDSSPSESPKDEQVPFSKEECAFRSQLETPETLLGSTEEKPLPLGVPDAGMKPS
The experiment in a line: flow cytometry on human PBMC, antibody at 10 ug/mL, anti-human Fc-PE secondary. As for the experimental part:
The following day 0.3×10⁶ PBMC were counted and washed with PBS (Lonza). PBMCs were resuspended in Fixable Viability Stain 575V (BD) diluted 1:1,000 in PBS and incubated for 10 minutes. PBMCs were then washed twice in PBS to remove residual viability stain. PBMCs were then resuspended in Horizon Brilliant Stain Buffer (BD) with 10 uL per test of human Fc receptor binding inhibitor (eBioscience) and incubated on ice for 20 minutes to block Fc receptors. […] PBMCs were incubated 20 minutes on ice and then washed three times with 2% FBS PBS. To visualize TNFR chimeric antibody binding, PBMCs were resuspended in goat anti-human Fc-PE F(ab′)₂ secondary reagent (Jackson ImmunoResearch) diluted 1:200 in 2% FBS PBS and incubated on ice for 20 minutes. Cells were then washed three times in 2% FBS PBS and resuspended in 200 uL 2% FBS PBS for flow cytometry analysis using a BD FACS Celesta instrument and FACS Diva software. T cells were analyzed for chimeric TNFR2 binding by gating on viable cells defined as lymphocytes using forward and side scatter and as T cells by anti-CD3 staining. CD4⁺ and CD8⁺ subsets were identified by commercially available specific antibody conjugates.
(In flow cytometry, cells or beads pass a laser one at a time.)

B1: chimeric SBT-002 (antibody, V domains shown)
VH: QVTLKESGPGILQPSQTLSLTCSFSGFSLSTSGMGVGWIRQPSGKGLEWLAHIWWDDDKFYNPSLKSQLTISKDTSRNQVFLKLTSVVTADTATYYCARLTGTRYFDYWGQGTTLTVSS
VL: DVQMTQSPSSLSASLGGKVTITCKASQDINKFIAWYQHKPGKGPRLLIHYTSTLQPGIPSKFSGSGSGRDYSFSISNLEPEDIATYYCLQYGNLWTFGGGTKLEIT
notes: also called chSBT-002
A word on the IC50: it is the point on the concentration scale where inhibition reaches its midpoint. Low readings indicate higher potency, high ones lower potency. What is called Kd is the concentration at which binding is half-saturated. Read a low Kd as tighter binding. Take B1: the IC50 in test [1] is 15.6 nM. For the same molecule, in test [2], the “Average Relative IC50” value is 3.38. The same molecule displayed a Kd in test [3] of 0.8 nM. This molecule also came in with a Kd in test [4] of 0.62 nM. Further, in test [5], the “Relative IC50” value turned out to be 2.98 nM. For the same molecule, in test [6], the “% CD4^+ ab^+ Donor 1” value was 47.6%, the “% CD4^+ ab^+ Donor 2” value was determined as 38.3%, the “% CD8^+ ab^+ Donor 1” value came out at 24.3% and the “% CD8^+ ab^+ Donor 2” value was determined as 18.9%.

B2: chimeric SBT-004 (antibody, V domains shown)
VH: EVQLQQSGPEVGRPGSSVKISCKASGYTFTDYIMHWVKQSPGQGLEWIGWVDPEYGSTDYAEKFKKKATLTADTSSNTAYIQLSSLTSEDTATYFCARDDGSYSPFDYWGQGVMVTVSS
VL: DIQMTQSPPSLSASLGDKVTITCQASQNINKYIAWYQQKPGKAPRLLIRYTSTLESGTPSRFSGSGSGRDYSFSISNVESEDIASYYCLQYVNLLTFGAGTKLEIK
notes: VH fused to a human IgG1 Fc domain; also called chSBT-004
With B2, the IC50 in test [1] worked out at 16.7 nM. Further, in test [2], the “Average Relative IC50” value came to 3.64. For the same molecule, the affinity in test [3], expressed as Kd, was 3.6 nM. For the same molecule, binding in test [4] was characterised by a dissociation constant (Kd) of 3.4 nM. Besides, the “Relative IC50” value in test [5] was found to be 3.54 nM. In test [6], the “% CD4^+ ab^+ Donor 1” value amounted to 38.4%, the “% CD4^+ ab^+ Donor 2” value came to 26.4%, the “% CD8^+ ab^+ Donor 1” value turned out to be 18.8% and the “% CD8^+ ab^+ Donor 2” value worked out at 16.1%.
